According to article PMC2572620, “The Mycoplasma pneumoniae MPN229 gene encodes a protein that selectively binds single-stranded DNA and stimulates Recombinase A-mediated DNA strand exchange” (BMC Microbiology, 2008):

Target: the molecule itself
Experiment: SEC; Sephadex G-150 column; 500 ul of untagged Mpn SSB at 0.3 mg/ml in 50 mM Tris-HCl pH 7.5, 135 mM NaCl; calibrated with BSA, ovalbumin and cytochrome C; fractions analysed by SDS-PAGE

B1: Mpn single-stranded DNA-binding protein (Mpn SSB), natural non-tagged form (natural protein, Mycoplasma pneumoniae, UniProt P75542 1-166, looked up)
chain: MNRVFLFGKLSFDPNKLQTRTNNIGASFSLACIDSSGFNDSKSYIRITAWGKVASFVLTLKPGDSVFVEGRLSTYKMNNRSDDPNSKATYALQVIADKVYRPDEENSLEQPVDKATVIDSPFLAAKTNATENELAQAFPISLDDEDDDINPILNNDSQLEEESDDE
notes: 166 amino acids, 18.4 kDa; ORF amplified from genomic DNA of strain MAC (ATCC 15492) with primers from the initiation codon to the termination codon; expressed in its natural, non-tagged form; Cloned from strain MAC; the genome entry for MPN229 is of strain M129; also called MPN229 protein product; M. pneumoniae SSB; source: E. coli BL21(DE3), pET-11c-MpnSSB, purified (ammonium sulphate …)
stoichiometry N: 4
